{"source": "the DeepSol protein solubility set"}
{"test": "soluble on expression in E. coli; label from the status in PepcDB or PDB records"}
{"sequence": "MPEFVQYVGGHFEEVGKEFMQYFIEIGNLKSNETVLDVGCGIGRMAVPLMNYLSDDGTYYGFDLFNKGITWCKNNISTRRNNFHFEHVDIYNQFYNPDGKEDASQYKFPYEDESFDFIFLTSVFTHLLPKELEHYVREIARVLKKDGRCFITFFLINPESSYYLNAGLSPLGFYHQIDNCYVLNKDIPNFAVAYPEEDIRTLLNKYGLEMQTPPHYGSWCGRTEHTSYQDIILAQKLEHHHHHH", "soluble on expression in E. coli": "soluble"}
{"sequence": "MPELKVVVSIKQVPDVDELRIDPVTNNLVREGVPAVINPPDLHAIEEAVRLKERYGAKTIVITMGPPQADSALREALAMGIDEAYLISDRAMAGADTWATSYTISKAVQKLGGADLILFGRRAVDGETEQVGPQTGKWLGLPVIGYVSEIKSLEKDKIVVTRTTEFDEEVIEAPVPVVLTILEVANKPRQPDILSLIKAKTAKVTVWNKDDIKAEPNKIGLAGSPTKVIKVQPPPKTRKAEIIDGKKDVEKAAKWFLDKIFESLKE", "soluble on expression in E. coli": "not soluble"}
{"sequence": "MPFIECHIATGLSVARKQQLIRDVIDVTNKSIGSDPKIINVLLVEHAEANMSISGRIHGEAASTERTPAVS", "soluble on expression in E. coli": "soluble"}
{"sequence": "MPFPVTTQGSQQTQPPQKHYGITSPISLAAPKETDCLLTQKLVETLKPFGVFEEEEELQRRILILGKLNNLVKEWIREISESKNLPQSVIENVGGKIFTFGSYRLGVHTKGADIDALCVAPRHVDRSDFFTSFYDKLKLQEEVKDLRAVEEAFVPVIKLCFDGIEIDILFARLALQTIPEDLDLRDDSLLKNLDIRCIRSLNGCRVTDEILHLVPNIDNFRLTLRAIKLWAKRHNIYSNILGFLGGVSWAMLVARTCQLYPNAIASTLVHKFFLVFSKWEWPNPVLLKQPEECNLNLPVWDPRVNPSDRYHLMPIITPAYPQQNSTYNVSVSTRMVMVEEFKQGLAITDEILLSKAEWSKLFEAPNFFQKYKHYIVLLASAPTEKQRLEWVGLVESKIRILVGSLEKNEFITLAHVNPQSFPAPKENPDKEEFRTMWVIGLVFKKTENSENLSVDLTYDIQSFTDTVYRQAINSKMFEVDMKIAAMHVKRKQLHQLLPSHVLQKKKKHSTEGV", "soluble on expression in E. coli": "soluble"}
{"sequence": "MPGELLGAHYGHCFGCGEEQSHGLHLAARAGQGVSITAEFTVQPAHQGAPGLAHGGVLATALDETLGSLNWLLRTIAVTGRLETDFVRPVPVGTVLYLEAEVTAVAGRKIYSTATGRIGGPEGPVAVRADALFVEVKVDHFTDNGRQEEIRAAMNDPDQLRRARAFEVNPLEHHHHHH", "soluble on expression in E. coli": "not soluble"}
{"sequence": "MPGIDKLPIEETLEDSPQTRSLLGVFEEDATAISNYMNQLYQAMHRIYDAQNELSAATHLTSKLLKEYEKQRFPLGGDDEVMSSTLQQFSKVIDELSSCHAVLSTQLADAMMFPITQFKERDLKEILTLKEVFQIASNDHDAAINRYSRLSKKRENDKVKYEVTEDVYTSRKKQHQTMMHYFCALNTLQYKKKIALLEPLLGYMQAQISFFKMGSENLNEQLEEFLANIGTSVQNVRREMDSDIETMQQTIEDLEVASDPLYVPDPDPTKFPVNRNLTRKAGYLNARNKTGLVSSTWDRQFYFTQGGNLMSQARGDVAGGLAMDIDNCSVMAVDCEDRRYCFQITSFDGKKSSILQAESKKDHEEWICTINNISKQIYLSENPEETAARVNQSALEAVTPSPSFQQRHESLRPAAGQSRPPTARTSSSGSLGSESTNLAALSLDSLVAPDTPIQFDIISPVCEDQPGQAKAFGQGGRRTNPFGESGGSTKSETEDSILHQLFIVRFLGSMEVKSDDHPDVVYETMRQILAARAIHNIFRMTESHLLVTCDCLKLIDPQTQVTRLTFPLPCVVLYATHQENKRLFGFVLRTSSGRSESNLSSVCYIFESNNEGEKICDSVGLAKQIALHAELDRRASEKQ", "soluble on expression in E. coli": "not soluble"}
{"sequence": "MPGINGAGPSNFFWQWRTDGEPVTEREHDSSRSASSANSPELPPPASPAESGRQRLLRSSALSRQTREWLEATPARVQGATPPAEARQSPEAQQAERIVQELVRGGADLNNVRTMLRNVMDNNAVAFSRVERDILLQHFPNMPMTGISSDSVLANELRQRLRQTVRQQRIQSSTPARLADSSSGSSQRSLIGRSTMLMTPGRSSSSSAAASRTSVDRHPQGLDLESARLASAARHNHSANQTNEALRRLTQEGVDMERLRTSLGRYIMSLEPLPPDLRRALESVGINPFIPEELSLVDHPVLNFSAALNRMLASRQTTTNSPELPPLASSAESGRRRLLRSPPLLSGQREWIEQSMRQEAEPQSSRLNRAVRLAVMPPQNENEDNVAYAIRLRRLNPGADVSRVVASFITDPAARQQVVNDIRAALDIAPQFSQLRTISKADAESEELGFRDAADHPDNATSCLFGEELSLSNPDQQVIGLAVNPTDKPQPYSQEVNKALTFMDMKKLAQYLADKPEHPLNRQRLDAKNIAKYAFKIVP", "soluble on expression in E. coli": "not soluble"}
{"sequence": "MPGRKRKLAAKTAELAPEAGEGSESTSLVGSADASASTAAGVAHTEQQEMPSGGLHESFLESIPPAASFLEELAWVESLASPSYVAYLCQMRRFDDVVAQRRLTTLQRWRQDPAYRQHVSQPIALFFLEQLCSAEFREALRHPAVAALYERQVDLYRRCYGNLLNTGESRVLR", "soluble on expression in E. coli": "not soluble"}
{"sequence": "MPHVICEPCIGVKDQSCVEVCPVECIYDGGDQFYIHPEECIDCGACVPACPVNAIYPEEDVPEQWKSYIEKNRKLAGLE", "soluble on expression in E. coli": "soluble"}
{"sequence": "MPIDDNIIIADEAVIHPGDLHEDFIRSSGPGGQNVNKVATAVQLRFDAANAAGLSERVRARTIKLAGQRATKDGVIVIEAGRFRTQEQNRADARARLTALVAKAAEPPPPPRKKTRPSKGAVERRLKSKAGRGTIKKLRGRVGDDLEHHHHHH", "soluble on expression in E. coli": "soluble"}
{"sequence": "MPIEIITDSGADLPQSYIREHRIAFLPLVVHWNGQDYKDGITIEPKQVYDAMRQGHTVKTAQPSPLAMKELFLPYAKENRPCLYIAFSSKLSGTYQTAMAVRSELLDEYPEFRLTIIDSKCASLGQGLAVMKAVELAKQNTPYNLLCETIESYCRHMEHIFTVDNLDYLARGGRISKTAAAFGGLLNIKPLLHVEDGALIPLEKWRGRKKVLKRMVELMGERGDDLQKQTIGISHADDEETALELKQMIEETHGCTRFFLSDIGSAIGAHAGPGTIALFFLNKYIEI", "soluble on expression in E. coli": "soluble"}
{"sequence": "MPIKVGINGFGRIGRMVFQALCEDGLLGTEIDVVAVVDMNTDAEYFAYQMRYDTVHGKFKYEVTTTKSSPSVAKDDTLVVNGHRILCVKAQRNPADLPWGKLGVEYVIESTGLFTAKAAAEGHLRGGARKVVISAPASGGAKTLVMGVNHHEYNPSEHHVVSNASCTTNCLAPIVHVLVKEGFGVQTGLMTTIHSYTATQKTVDGVSVKDWRGGRAAAVNIIPSTTGAAKAVGMVIPSTQGKLTGMSFRVPTPDVSVVDLTFTAARDTSIQEIDAALKRASKTYMKGILGYTDEELVSADFINDNRSSIYDSKATLQNNLPKERRFFKIVSWYDNEWGYSHRVVDLVRHMASKDRSARL", "soluble on expression in E. coli": "soluble"}
{"sequence": "MPIPLYLQDWWLDAVCGFDEWMAFVLEEEGTVSGVMPCYMPVPGHISMPPFTQFLGSYSFIGINEDSTTSFRAHRRVHDMLRSMLPPHKSFMVQYSKDFTDWLPYYWQGYSQTTRYTYRIDLSPGIDVVRMAIRPDAMKKIRKAERDGLRCTSATVDDLLRLCRISMSRQEAKGFAAETLQRLAEVAIERHAGEIVGCEDSEGRLLAAVFLAHDHNTAYTIASGQIREGQGRNAGAFVLYEAIWRACEMEGIHTFDFEGSMLEGIEGFFRSFGGIQTPYFRLSKGRIGLYGRLRRKWRAFHDTGQQKQV", "soluble on expression in E. coli": "not soluble"}
{"sequence": "MPIRAARASLRRMDSDFLIIGGGIAGVSAAARLSELGSVTLLEAEDALAHHASSRSAALYEPRYGLPPVVELSLASGDFFRAADGILSPRGLLVVGREAEREQFEDETVGMHLERISAEEARAAVPILRPDVTLAARADHAWDIDTDRLLQGFAREARARGARIVTKARVGAIARDGAGWRVEAGESYRARILVNAAGAWADGVAALSGVRPLGLVPYRRSMARIPAPGGHDISRWPMIFGVGESWYAKPDAGALIVSPADEDPQEPHDAWADDMVLAEGLARYEEMVTEPVTRLLASWAGLRTFAPDRVLVIGEDPAAPGFFWLAGQGGYGFQTCPAASRLAADLIGGRSPEVPAALIAALSPDRFALEHHHHHH", "soluble on expression in E. coli": "not soluble"}
{"sequence": "MPKIPITLITGFLGSGKTSFLSEYLNQTDHQGVALIINEIGQAALDQRILSVQYCGEKMLYLNAGCVCCNKRLDLVESLKATLNNYEWHGEILRRIIIETTGLANPAPILWTILSDTFLGVHFEIQSVVACVDALNAREHLTNNEAKEQIVFADSVLLTKTDLQNDSAALTKLKERIQALNPSAEIFDKRAIDYESLFSRKNRARNFMPRMPKDSHSQGFETLSINFEGTMEWSAFGIWLSLLLHQYGTQILRIKGIIDIGSGFLVSINGVMHVIYPPKHILKDQNGSNLVFIMRHLEREKILNSLKGFKDFLGIKGFETQLEHHHHHH", "soluble on expression in E. coli": "soluble"}
{"sequence": "MPKLSAFYYQVLEDFGYIYDSSITVPPVPVPVWPYTLDYKISHECKSGTCPSRTFPGVWEVPLNTHYVEGYEGGHCPYLDQCVLHNLDEEEVFQWLQEDFSRYYEQNKAPYMMPFHTNWFQTKPLENGLHKFLDWALELLEHHHHHH", "soluble on expression in E. coli": "not soluble"}
{"sequence": "MPKNDLLLRSLRGEPIGRFPVWLMRQAGRYMPEYRKIRNRVKNFLELCKNVDLATEISLLPLKILGVDAIIIFSDILVPLEPLGVKVEFVEGEGPKLSWSGKVSDLKKYDPSQNAYVYEIIKRVKEAQDEVPVIGFAGAPFTLLSYLIEGGASKDFKSTKLFMWENPKEYKRLMDILTETVLAYLKEQIKAGADVVQIFDSWVNNLSLEDYGEYVYPYVNYLISELKDFSDTPVIYFFRGSSSFIDLAVDYRADALSVDWSVDIPELFKIYDKGFQGNLEPAVLYASEEVIEEKTLGLLRRIPVKTRYVFNLGHGLAPDMELEKVKYLVDLVKSFPLT", "soluble on expression in E. coli": "soluble"}
{"sequence": "MPKVGMQPIRRQQLIQATLTAVDQVGMGDASIALIARLAGVSNGIISHYFQDKNGLIAATMRHLMNALIQNVRERRQALTEDSPRAHLQVIIEGNFDASQVSGPAMKTWLAFWATSMHHPSLHRLQRINDHRLYSNLCCQFRRTLPLEQARNAARGLAALIDGLWLRGALSGDAFDTEQAQRIAYEYMDFQLAKSAS", "soluble on expression in E. coli": "not soluble"}
{"sequence": "MPKYYEDKPQGGACAGLKEDLGACLLQSDCVVQEGKSPRQCLKEGYCNSLKYAFFECKRSVLDNRARFRGRKGY", "soluble on expression in E. coli": "not soluble"}
{"sequence": "MPLGSLFDKTYDEMHCNQKSWEMAERQLMEDAVNVALQKNNLTKDDIDLLLAGDLLNQNVTANYVARHLKIPFLCMFGACSTSMETVAVASALVDGGFAKRALAATSSHNATAERQFRYPTEYGGQKPDTATSTVTGSGAVVISQTPGDIQITSATVGKVSDLGITDPFDMGSAMAPAAADTIKQHFKDLNRTADDYDLILTGDLSGVGSPIVKDILKEDGYPVGTKHDDCGLLIYTPDQQVFAGGSGCACSAVVTYSHIFKQLREGKLNRVFVVATGALLSPTMIQQKETIPTIAHGVVFERAGGASLEHHHHHH", "soluble on expression in E. coli": "not soluble"}
{"sequence": "MPLHVVLYQPEIPANTGNIARTCAATDTSLHLIRPLGFSTDDKMLKRAGLDYWPYVNISYYDSLDELFARFPEGEFYFITKFGRRYYDSFDFSDTEKHIFFVFGRETTGLPKELLEANMDRCLRIPMNDKVRSLNLSNTAAILVYEALRQQRFYGLS", "soluble on expression in E. coli": "not soluble"}
{"sequence": "MPLLYLNTRECRWYLMGEGEMKKIAAISLISIFLISGCAVHNDETSIGKFGLAYKSNIQRKLDNQYYTEAEASLARGRISGAENIVKNDAAHFCVTQGKKMQIVDLKTEGAGLHGVARLTFKCGE", "soluble on expression in E. coli": "not soluble"}
{"sequence": "MPLQVDDVAERAFVRIVGALRSVRVTSERSQNSLSTFLPVRGRAISEWETGAIQPKLSHLIQWSWELDRRLVIVGRDGELRNDSLRQRPGESWEVFERRRLATPLRNRRQAMGMAQGELADLVGVTRDSIQRWELVRVPPRPIALIVWAQKLG", "soluble on expression in E. coli": "not soluble"}
